According to patent publication US20200316124A1:

Target: SCNN1A, Sodium Channel Epithelial 1 Alpha Subunit (Isoform 1, UniProt P37088-1) (human) (UniProt P37088)
Test: cell-based or functional assay

SCNN1A, Sodium Channel Epithelial 1 Alpha Subunit, sequence (P37088 whole entry, canonical isoform, one chain of several): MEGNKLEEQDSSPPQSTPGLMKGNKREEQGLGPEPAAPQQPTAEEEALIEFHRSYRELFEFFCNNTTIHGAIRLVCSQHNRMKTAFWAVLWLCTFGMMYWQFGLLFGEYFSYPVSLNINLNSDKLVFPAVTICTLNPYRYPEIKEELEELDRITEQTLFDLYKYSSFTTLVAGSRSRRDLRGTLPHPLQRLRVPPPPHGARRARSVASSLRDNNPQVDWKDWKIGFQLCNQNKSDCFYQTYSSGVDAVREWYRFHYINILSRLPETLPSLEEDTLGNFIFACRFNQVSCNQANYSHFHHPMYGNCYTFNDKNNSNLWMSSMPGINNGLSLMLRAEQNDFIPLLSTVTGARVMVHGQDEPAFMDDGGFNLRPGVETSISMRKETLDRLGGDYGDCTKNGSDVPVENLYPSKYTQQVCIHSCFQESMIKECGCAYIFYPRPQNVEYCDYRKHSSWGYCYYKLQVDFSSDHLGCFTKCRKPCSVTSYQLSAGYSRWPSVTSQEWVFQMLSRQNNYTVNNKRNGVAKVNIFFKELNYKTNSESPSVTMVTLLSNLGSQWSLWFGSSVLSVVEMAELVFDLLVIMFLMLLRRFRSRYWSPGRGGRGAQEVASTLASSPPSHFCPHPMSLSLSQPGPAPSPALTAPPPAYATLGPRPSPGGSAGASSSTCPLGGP

For “SW.3G1 T-cell receptor (γ3δ1 TCR, TRGV3/TRDV1) of T-cell clone SW.3G1”, the killing in long term killing assay, LCL.174 wildtype cells was 100% and the lysis in long term killing assay, LCL.174 SCNN1A knockout cell lines (gRNA-1 or gRNA-2) was less than 5%.
